Laboratory results: US20100111851A1 (UNIVERSITY OF TOKYO, published 2010)

Legend:
[1] = molecular target: T1, human PRG-3 (without tag) on cells (human, UniProt Q8TBJ4 1-325); assay: flow cytometry, mixture of the two antibodies on Ba/F3 cells transfected with pMCN-PRG-3
T1 construct: also called PRG-3 protein; PRG-3/BaF3
T1 sequence: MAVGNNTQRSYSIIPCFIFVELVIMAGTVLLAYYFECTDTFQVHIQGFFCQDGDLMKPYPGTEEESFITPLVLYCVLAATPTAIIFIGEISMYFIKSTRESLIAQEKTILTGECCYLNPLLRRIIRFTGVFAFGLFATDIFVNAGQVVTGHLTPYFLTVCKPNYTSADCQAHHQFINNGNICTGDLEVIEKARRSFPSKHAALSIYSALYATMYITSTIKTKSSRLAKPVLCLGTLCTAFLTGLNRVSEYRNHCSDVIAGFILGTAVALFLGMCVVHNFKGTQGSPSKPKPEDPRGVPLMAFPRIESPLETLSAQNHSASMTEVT
Protocol: A Ba/F3 cell transformant line was established by gene transfer of the pMCN-PRG-3 expression vector constructed in example 2 into Ba/F3 cells, which is a murine pro B cell line, by electroporation under conditions of 0.33 kV and 950 μF. The Ba/F3 cells are IL-3 dependent cells, and they were cultured in RPMI-1640/10% FBS/penicillin-streptomycin containing 1 ng/mL IL-3. The cells that underwent gene transfer were selected by RPMI-1640/10% FBS/penicillin-streptomycin containing IL-3 and 500 μg/mL Geneticin® (Invitrogen). Cells expressing PRG-3 from the Geneticin®-resistant lines were selected by flow cytometry. […] Lines O-A5, O-D3, and O-F5 were established as Ba/F3 cell lines expressing PRG-3 (FIG. 6). Additionally, line O-F5 was cloned by the limiting dilution method and the OF5-G8 line with a high level of expression was also obtained.

[2] = molecular target: T2, whole human PRG-3 with a C-terminal V5 tag, inducibly expressed on PRG-3/293T-Rex cells (human, UniProt Q8TBJ4 1-325); assay: flow cytometry, hybridoma supernatant on PRG-3-induced against non-induced 293 cells
T2 construct: Membrane protein with 6 transmembrane regions; also called PRG-3/293 cells; PRG3+/293 cells; not shown: V5 tag inserted at the C-terminus
T2 sequence: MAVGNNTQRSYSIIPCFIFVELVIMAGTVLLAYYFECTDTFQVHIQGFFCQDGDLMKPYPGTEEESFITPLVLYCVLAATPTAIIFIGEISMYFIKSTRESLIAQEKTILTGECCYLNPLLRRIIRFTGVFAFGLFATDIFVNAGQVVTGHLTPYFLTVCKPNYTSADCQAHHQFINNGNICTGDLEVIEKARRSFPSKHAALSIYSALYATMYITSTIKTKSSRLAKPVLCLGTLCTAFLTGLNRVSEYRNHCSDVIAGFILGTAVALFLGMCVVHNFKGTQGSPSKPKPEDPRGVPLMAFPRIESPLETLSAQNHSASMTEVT
Protocol: The cell line expressing human PRG-3 suspended in FACS buffer (2% FBS/PBS) was diluted to 1×10⁶ cells/mL using FACS buffer, and aliquoted at 50 μL/well into a Falcon 353910 round-bottom 96-well plate. Hybridoma culture supernatant diluted to a suitable concentration was added to the wells containing the cells and reacted for 60 min on ice. Next, the cells were rinsed once with FACS buffer. Goat F(ab′)₂ fragment anti-mouse IgG (H+L)-FITC (Beckman Coulter) was added to the wells containing the cells as a secondary antibody, and reacted for 30 min on ice. The supernatant was removed by centrifugation after the reaction, and the cells suspended in 100 μL of FACS buffer were subjected to flow cytometry. A FACS Calibur (Becton Dickinson) was used for the flow cytometry. A gate for the viable cell population was established with a forward scatter-side scatter dot blot, an FL1 histogram was made of the cells contained in the population, and binding activity thereof was evaluated.

Binder	binding result [1]	binding result [2]
anti-PRG-3 monoclonal antibody 4F1 (antibody, mouse IgG2b, kappa, V domains shown, also called MR4F1) VH: QVQLQQPGAELVKPGASVKLSCKASGYTFTSYWMNWVKQRPGRGLEWIGKIHPSDSETHYNQKFKSKATLTVDKSSSTAYIQLNSLTSEDSAVYYCTRGYNNYLDYWGQGTTLTVSS VL: DIVLTQSPASLAVSLGQSVTISCRASESVEYYGTSLMQWYQQKPGQPPKLLIYGASNVESGVPARFSGSGSWTDFSLNIHPVEEDDIAIYFCQQSRKVPSTFGGGTKLEIKR	binds	binds
anti-PRG-3 monoclonal antibody 4F12 (antibody, mouse IgG2a, kappa, V domains shown, Tested as hybridoma culture supernatant and as protein G purified antibody; also called MR4F12) VH: QVQLQQPGAELVKPGASVKLSCKASGYTFTSYWMNWVKQRPGRGLEWIGKIHPSDSETHYNQKFKSKATLTVDKSSSTAYIQLSSLTSEDSAVYYCARGYSNYLDYWGQGTTLTVSS VL: DIVLTQSPASLAVSLGQRVTISCRASESVEYYGTSLMQWYQQKPGQPPKLLIYGASNVESGVPARFSGSGSGTDFSLNIHPVEEDDIAMYFCQQSRKVPSTFGGGTKLEIKR	binds	binds
